Numbering of substitutions follows the chain as printed.
T1: plasma-derived human activated protein C (APC) (UniProt P04070 43-461)
T1 chain: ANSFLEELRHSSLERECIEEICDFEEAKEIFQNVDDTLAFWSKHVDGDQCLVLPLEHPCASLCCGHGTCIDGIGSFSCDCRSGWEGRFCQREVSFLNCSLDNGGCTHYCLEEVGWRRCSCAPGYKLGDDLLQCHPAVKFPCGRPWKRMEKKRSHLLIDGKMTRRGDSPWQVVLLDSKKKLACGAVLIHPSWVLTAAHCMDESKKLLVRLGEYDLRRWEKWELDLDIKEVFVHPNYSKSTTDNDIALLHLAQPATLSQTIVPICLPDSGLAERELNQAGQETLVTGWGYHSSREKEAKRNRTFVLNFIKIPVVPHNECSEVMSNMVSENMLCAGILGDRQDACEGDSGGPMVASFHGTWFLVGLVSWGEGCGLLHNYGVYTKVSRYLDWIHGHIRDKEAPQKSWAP

B1: TPP-24875 (antibody, V domains shown)
VL: DIVMTQSPLSLPVTPGEPASISCRSSQSVSSFGATFMHWYQQKPGQPPKLLIYLASNRASGVPDRFSGSGSGTDFTLTINPVEADDTANYYCQQNNEDPYTFGQGTKLEIK
B2: TPP-24861 (antibody, V domains shown)
VL: B1 VL with Q27E, S30D, T78K, N80S, P81R, D85E, T87V, A88G, N89V
B3: TPP-24911 (antibody, V domains shown)
VL: EIVLTQSPGTLSLSPGERATLSCRASQSVSSFGATFMHWYLQKPGQSPQLLIYLASNLESGVPARFSGSGSGTDFTLTINPVEADDTANYYCQQNNEDPYTFGQGTKLEIK
B4: TPP-24907 (antibody, V domains shown)
VL: B3 VL with L41Q, S47P, Q49K, L58R, E59A, A64D
B5: TPP-24901 (antibody, V domains shown)
VL: EIVLTQSPGTLSLSPGERATLSCRASESVDSFGATFMHWYLQKPGQSPQLLIYLASNRASGVPDRFSGSGSGTDFTLKISRVEAEDVGVYYCQQNNEDPYTFGQGTKLEIK
B6: TPP-24909 (antibody, V domains shown)
VL: B5 VL with E27Q, D30S, L41Q, S47P, Q49K
B7: TPP-24897 (antibody, V domains shown)
VL: B5 VL with R58L, A59E, D64A
B8: TPP-24853 (antibody, V domains shown)
VL: DIVLTQSPASLAVSPGQRATITCKASQSVSSFGATFMHWYLQKPGQSPQLLIYLASNRASGVPDRFSGSGSGTDFTLKISRVEAEDVGVYYCQQNNEDPYTFGQGTKLEIK
B9: TPP-24845 (antibody, V domains shown)
VL: B8 VL with L41Q, S47P, Q49K
B10: TPP-24833 (antibody, V domains shown)
VL: B8 VL with Q27E, S30D, R58L, A59E, D64A
B11: TPP-24827 (antibody, V domains shown)
VL: DIVLTQSPASLAVSPGQRATITCKASESVDSFGATFMHWYQQKPGQPPKLLIYLASNRASGVPDRFSGSGSGTDFTLTINPVEADDTANYYCQQNNEDPYTFGQGTKLEIK
B12: TPP-24869 (antibody, V domains shown)
VL: DIVMTQSPLSLPVTPGEPASISCRSSESVDSFGATFMHWYLQKPGQSPQLLIYLASNRASGVPDRFSGSGSGTDFTLKISRVEAEDVGVYYCQQNNEDPYTFGQGTKLEIK
B13: TPP-26871 (antibody, V domains shown)
VH: EVQLVESGGGLVQPGGSLRLSCAASGFTFSNYYMNWVRQAPGKGLEWVSYISSSSSTIYYADSVKGRFTISRDDSKNSLYLQMNSLKTEDTAVYYCAREGDYFDYWGQGTLVTVSS
VL: DIVLTQSPASLAVSPGQRATITCKASQSVSSFGATFMHWYQQKPGQPPKLLIYLASNRASGVPDRFSGSGSGTDFTLTINPVEADDTANYYCQQNNEDPYTFGQGTKLEIKR
B14: TPP-26872 (antibody, V domains shown)
VH: B13 VH
VL: B13 VL with Q41L, P47S, K49Q
B15: TPP-26863 (antibody, V domains shown)
VH: B13 VH
VL: DIVMTQSPLSLPVTPGEPASISCRSSESVDSFGATFMHWYLQKPGQSPQLLIYLASNRASGVPDRFSGSGSGTDFTLKISRVEAEDVGVYYCQQNNEDPYTFGQGTKLEIKR
B16: TPP-26873 (antibody, V domains shown)
VH: B13 VH
VL: B13 VL with Q41L, P47S, K49Q, T78K, N80S, P81R, D85E, T87V, A88G, N89V
B17: TPP-26862 (antibody, V domains shown)
VH: B13 VH
VL: B15 VL with L41Q, S47P, Q49K
B18: TPP-26935 (antibody, V domains shown)
VH: EVQLVESGGGLVQPGGSLRLSCAASGFTFSNYYINWVRQAPGKGLEWVGDIRLKSNNYEKHYAESVKGRFTISRDDSKNSLYLQMNSLKTEDTAVYYCAREGDYFDYWGQGTLVTVSS
VL: EIVLTQSPGTLSLSPGERATLSCRASQSVSSFGATFMHWYQQKPGQPPKLLIYLASNRASGVPDRFSGSGSGTDFTLKISRVEAEDVGVYYCQQNNEDPYTFGQGTKLEIKR
B19: TPP-26924 (antibody, V domains shown)
VH: B18 VH with I34M, N35S
VL: B13 VL with Q41L, P47S, K49Q
B20: TPP-26925 (antibody, V domains shown)
VH: B18 VH with I34M, N35S
VL: B13 VL with Q41L, P47S, K49Q, T78K, N80S, P81R, D85E, T87V, A88G, N89V
B21: TPP-26882 (antibody, V domains shown)
VH: EVQLVESGGGLVQPGGSLRLSCAASGFTFSNYYMNWVRQAPGKGLEWVGRIKSKTDGGTTDYAAPVKGRFTISRDDSKNSLYLQMNSLKTEDTAVYYCAREGDYFDYWGQGTLVTVSS
VL: B18 VL with K78T, S80N, R81P, E85D, V87T, G88A, V89N
B22: TPP-26920 (antibody, V domains shown)
VH: B18 VH with I34M, N35S
VL: B18 VL with Q41L, P47S, K49Q
B23: TPP-26894 (antibody, V domains shown)
VH: EVQLVESGGGLVQPGGSLRLSCAASGFTFSNYYMNWVRQAPGQGLEWMGRIIPILGIANYAQKFQGRFTISRDDSKNSLYLQMNSLKTEDTAVYYCAREGDYFDYWGQGTLVTVSS
VL: B18 VL with Q41L, P47S, K49Q
B24: TPP-26926 (antibody, V domains shown)
VH: B18 VH with I34M, N35S
VL: B13 VL with T78K, N80S, P81R, D85E, T87V, A88G, N89V
B25: TPP-26874 (antibody, V domains shown)
VH: B13 VH
VL: B13 VL with T78K, N80S, P81R, D85E, T87V, A88G, N89V
B26: TPP-26921 (antibody, V domains shown)
VH: B18 VH with I34M, N35S
VL: B18 VL with K78T, S80N, R81P, E85D, V87T, G88A, V89N
B27: TPP-26869 (antibody, V domains shown)
VH: B13 VH
VL: B18 VL with K78T, S80N, R81P, E85D, V87T, G88A, V89N
B28: TPP-26918 (antibody, V domains shown)
VH: B18 VH with I34M, N35S
VL: B13 VL with Q27E, S30D, T78K, N80S, P81R, D85E, T87V, A88G, N89V
B29: TPP-26864 (antibody, V domains shown)
VH: B13 VH
VL: B18 VL with Q27E, S30D, Q41L, P47S, K49Q

Biological target: T1, plasma-derived human activated protein …
Test: SPR

Row | Kd | Binder
1 | 47.7 nM | B1
2 | 24.1 nM | B2
3 | 43.2 nM | B3
4 | 45.9 nM | B4
5 | 26.9 nM | B5
6 | 46.2 nM | B6
7 | 47.9 nM | B7
8 | 51.5 nM | B8
9 | 54 nM | B9
10 | 49 nM | B10
11 | 31.7 nM | B11
12 | 24.2 nM | B12

Biological target: T1, plasma-derived human activated protein …
Test: SPR
Remark: another data set of the same source

Row | Kd | Binder
13 | 13.8 nM | B13
14 | 12.8 nM | B14
15 | 11.2 nM | B15
16 | 11.2 nM | B16
17 | 13.5 nM | B17
18 | 18.6 nM | B18
19 | 27.5 nM | B19
20 | 27.9 nM | B20
21 | 169 nM | B21
22 | 28.1 nM | B22
23 | 142 nM | B23
24 | 30.5 nM | B24
25 | 13.2 nM | B25
26 | 31.1 nM | B26
27 | 13.5 nM | B27
28 | 13.4 nM | B28
29 | 8.79 nM | B29
